Assay results published in US9708413B2, “Glycosylated linker, compound containing glycosylated linker moiety and physiologically active substance moiety or salt thereof, and methods for producing said compound or salt thereof” (Glytech, Inc., priority 2012, dated 2017).
Several values for one entry are separate records, joined by “and”; a condition that tells them apart may be missing. Equal values may be shown once. Read-outs that look alike come from different tables or passages of the source.

Tests used:
[1] = Autocatalytic cleavage of the glycosylated linker moiety in aqueous solution, traced by HPLC (elimination half-life)
Experimental: To each sampled solution, a 0.5% aqueous TFA solution (28 μL) was added, and this solution was then frozen. The obtained solution was dissolved immediately before HPLC analysis, and a 50 μL aliquot thereof was injected and analyzed by HPLC [column: SHISEIDO CAPCELL PAK C18 UG-120 (5 μm), φ4.6×250 mm, flow rate: 0.7 mL/min, eluent A: 0.1% TFA in water, eluent B: 0.09% TFA/10% water/90% acetonitrile, gradient A:B=77:23→50:50 (20 min) linear concentration gradient elution]. The compound was detected using a diode array detector with a detection wavelength set to 220 nm.

physchem = experiment: physchem
Experimental: To each microtube, 30 μL of a 0.1% aqueous TFA solution was added. These microtubes were shaken at 25° C. for 15 minutes and then centrifuged at 16100×g at 25° C. for 10 minutes. Subsequently, the absorbance of the supernatant at 280 nm was measured in each of these microtubes.
Then, three of these tubes were used in amino acid composition analysis to determine sample contents. […] This absorbance at 280 nm was divided by the concentration determined in the amino acid composition analysis to determine the molar absorption coefficient.
The molar absorption coefficient εM of the HER28-16 peptide (SEQ ID NO: 15) at 280 nm was calculated according to the following expression (C. N. Pace et al., Prot. Sci., 1995, 4, pp. 2411-2423): εM=Trp×5500+Tyr×1490+Cystine×125[A280/mol/cm]
wherein Trp represents the number of tryptophan residues, Tyr represents the number of tyrosine residues, and Cystine represents the number of disulfide bonds.

[2] = PBS solution, pH 7.4, Elimination half-life, PBS (pH 7.4), 25° C.
[3] = PBS solution, pH 7.4, Elimination half-life, PBS (pH 7.4), 37° C.
[4] = acetate buffer solution, pH 4, Elimination half-life, Acetate buffer solution (pH 4.0), 25° C.
[5] = acetate buffer solution, pH 4, Elimination half-life, Acetate buffer solution (pH 4.0), 37° C.

**Q.** Which half-life ([1]; PBS solution, pH 7.4, Elimination half-life, PBS (pH 7.4), 4° C.) does the source give for `CC(=O)N[C@@H]1[C@@H](O)[C@H](O[C@@H]2O[C@H](CO)[C@@H](O[C@@H]3O[C@H](CO[C@H]4O[C@H](CO)[C@@H](O)[C@H](O)[C@@H]4O[C@@H]4O[C@H](CO)[C@@H](O[C@@H]5O[C@H](CO)[C@H](O)[C@H](O)[C@H]5O)[C@H](O)[C@H]4NC(C)=O)[C@@H](O)[C@H](O[C@H]4O[C@H](CO)[C@@H](O)[C@H](O)[C@@H]4O[C@@H]4O[C@H](CO)[C@@H](O[C@@H]5O[C@H](CO)[C@H](O)[C@H](O)[C@H]5O)[C@H](O)[C@H]4NC(C)=O)[C@@H]3O)[C@H](O)[C@H]2NC(C)=O)[C@@H](CO)O[C@H]1NC(=O)CC(N)C(=O)N1CCN(CCNC(=O)c2ccccc2C(=O)N[C@@H](Cc2ccc(O)cc2)C(=O)N[C@@H](Cc2ccccc2)C(=O)N2CCC[C@H]2C(=O)NCC(=O)N[C@@H](CCC(N)=O)C(=O)N[C@@H](Cc2ccccc2)C(=O)N[C@@H](C)C(=O)N[C@@H](Cc2ccccc2)C(=O)N[C@@H](CO)C(=O)O)CC1` (stereo partly shown) [compound 1, glycosylated (Asn (asialo)-type) linker-chemerin 9 conjugate] here?
**A.** Its half-life is 43.1 h.

**Q.** What about the half-life [1, 2] of the same molecule?
**A.** The half-life was 4.3 h.

**Q.** What about the half-life [1, 3] of the same molecule?
**A.** Its half-life is 1.2 h.

**Q.** What about the half-life ([1]; acetate buffer solution, pH 4, Elimination half-life, Acetate buffer solution (pH 4.0), 4° C.) of the same molecule?
**A.** The half-life was 250 h.

**Q.** And the half-life [1, 4]?
**A.** The half-life was 16 h.

**Q.** What about the half-life [1, 5] of the same molecule?
**A.** Its half-life is 4.4 h.

**Q.** What about the half-life ([1]; water, Elimination half-life (Reference), in water, 4° C.) of the same molecule?
**A.** The half-life was 221 h.

**Q.** For `CC(=O)N[C@@H]1[C@@H](O)[C@H](O)[C@@H](CO)O[C@H]1NC(=O)CSC[C@H](N)C(=O)N1CCN(CCNC(=O)c2ccccc2C(=O)N[C@@H](Cc2ccc(O)cc2)C(=O)N[C@@H](Cc2ccccc2)C(=O)N2CCC[C@H]2C(=O)NCC(=O)N[C@@H](CCC(N)=O)C(=O)N[C@@H](Cc2ccccc2)C(=O)N[C@@H](C)C(=O)N[C@@H](Cc2ccccc2)C(=O)N[C@@H](CO)C(=O)O)CC1` [compound 4, glycosylated (Cys (GlcNAc)-type) linker-chemerin 9 conjugate], which half-life [1, 3] is on record?
**A.** The half-life was 1.4 h.

**Q.** And the half-life [1, 5]?
**A.** The half-life was 4.3 h.

**Q.** What does the source list for `CC(=O)N[C@@H]1[C@@H](O)[C@H](O[C@@H]2O[C@H](CO)[C@@H](O[C@@H]3O[C@H](CO[C@H]4O[C@H](CO)[C@@H](O)[C@H](O)[C@@H]4O[C@@H]4O[C@H](CO)[C@@H](O[C@@H]5O[C@H](CO)[C@H](O)[C@H](O)[C@H]5O)[C@H](O)[C@H]4NC(C)=O)[C@@H](O)[C@H](O[C@H]4O[C@H](CO)[C@@H](O)[C@H](O)[C@@H]4O[C@@H]4O[C@H](CO)[C@@H](O[C@@H]5O[C@H](CO)[C@H](O)[C@H](O)[C@H]5O)[C@H](O)[C@H]4NC(C)=O)[C@@H]3O)[C@H](O)[C@H]2NC(C)=O)[C@@H](CO)O[C@H]1NC(=O)CC(NC(=O)OCC1c2ccccc2-c2ccccc21)C(=O)N1CCN(CCNC(=O)c2ccccc2C(=O)N[C@@H](Cc2ccc(O)cc2)C(=O)N[C@@H](Cc2ccccc2)C(=O)N2CCC[C@H]2C(=O)NCC(=O)N[C@@H](CCC(N)=O)C(=O)N[C@@H](Cc2ccccc2)C(=O)N[C@@H](C)C(=O)N[C@@H](Cc2ccccc2)C(=O)N[C@@H](CO)C(=O)O)CC1` (stereo partly shown) [compound 7, glycosylated (Fmoc-Asn (asialo)-type) linker-chemerin 9 conjugate]?
**A.** half-life [1, 3]: 2.6 h; half-life [1, 5]: 12.2 h

**Q.** For `CC(=O)N[C@@H]1[C@@H](O)[C@H](O[C@@H]2O[C@H](CO)[C@@H](O[C@@H]3O[C@H](CO[C@H]4O[C@H](CO)[C@@H](O)[C@H](O)[C@@H]4O[C@@H]4O[C@H](CO)[C@@H](O[C@@H]5O[C@H](CO)[C@H](O)[C@H](O)[C@H]5O)[C@H](O)[C@H]4NC(C)=O)[C@@H](O)[C@H](O[C@H]4O[C@H](CO)[C@@H](O)[C@H](O)[C@@H]4O[C@@H]4O[C@H](CO)[C@@H](O[C@@H]5O[C@H](CO)[C@H](O)[C@H](O)[C@H]5O)[C@H](O)[C@H]4NC(C)=O)[C@@H]3O)[C@H](O)[C@H]2NC(C)=O)[C@@H](CO)O[C@H]1NC(=O)CSCC(N)C(=O)N1CCN(CCNC(=O)c2ccccc2C(=O)N[C@@H](Cc2ccc(O)cc2)C(=O)N[C@@H](Cc2ccccc2)C(=O)N2CCC[C@H]2C(=O)NCC(=O)N[C@@H](CCC(N)=O)C(=O)N[C@@H](Cc2ccccc2)C(=O)N[C@@H](C)C(=O)N[C@@H](Cc2ccccc2)C(=O)N[C@@H](CO)C(=O)O)CC1` (stereo partly shown) [compound 5, glycosylated (Cys (asialo)-type) linker-chemerin 9 conjugate], which half-life [1, 3] is on record?
**A.** Its half-life is 1.3 h.

**Q.** What about the half-life [1, 5] of the same molecule?
**A.** The half-life was 4.5 h.

**Q.** With `CC(=O)N[C@@H]1[C@@H](O)[C@H](O[C@@H]2O[C@H](CO)[C@@H](O[C@@H]3O[C@H](CO[C@H]4O[C@H](CO)[C@@H](O)[C@H](O)[C@@H]4O[C@@H]4O[C@H](CO)[C@@H](O[C@@H]5O[C@H](CO)[C@H](O)[C@H](O)[C@H]5O)[C@H](O)[C@H]4NC(C)=O)[C@@H](O)[C@H](O[C@H]4O[C@H](CO)[C@@H](O)[C@H](O)[C@@H]4O[C@@H]4O[C@H](CO)[C@@H](O[C@@H]5O[C@H](CO)[C@H](O)[C@H](O)[C@H]5O)[C@H](O)[C@H]4NC(C)=O)[C@@H]3O)[C@H](O)[C@H]2NC(C)=O)[C@@H](CO)O[C@H]1NC(=O)CC(N)C(=O)N1CCN(CCNC(=O)c2c(Cl)c(Cl)c(Cl)c(Cl)c2C(=O)N[C@@H](Cc2ccc(O)cc2)C(=O)N[C@@H](Cc2ccccc2)C(=O)N2CCC[C@H]2C(=O)NCC(=O)N[C@@H](CCC(N)=O)C(=O)N[C@@H](Cc2ccccc2)C(=O)N[C@@H](C)C(=O)N[C@@H](Cc2ccccc2)C(=O)N[C@@H](CO)C(=O)O)CC1` (stereo partly shown) [compound 10, glycosylated (Asn (asialo)-tetrachlorophthaloyl-type) linker-chemerin 9 conjugate] as the molecule, how does the half-life [1, 2] read?
**A.** The half-life was 1.1 h.

**Q.** And the half-life [1, 3]?
**A.** The half-life was 0.255 h.

**Q.** What about the half-life [1, 4] of the same molecule?
**A.** Its half-life is 4.5 h.

**Q.** What about the half-life [1, 5] of the same molecule?
**A.** Its half-life is 1.3 h.

**Q.** Which solubility thermodynamic at 15 min (physchem) does the source give for `CC(C)C[C@H](NC(=O)[C@H](CC(C)C)NC(=O)[C@H](C)NC(=O)[C@H](CC(C)C)NC(=O)[C@H](CC(C)C)NC(=O)[C@H](CC(C)C)NC(=O)CNC(=O)[C@H](Cc1c[nH]c2ccccc12)NC(=O)[C@@H](N)CCCNC(=N)N)C(=O)O` [HER28-16, reference compound] here?
**A.** The solubility thermodynamic at 15 min was 210 µg/mL and 200 µM.

**Q.** Which half-life [1, 2] does the source give for `CC(=O)N[C@@H]1[C@@H](O)[C@H](O[C@@H]2O[C@H](CO)[C@@H](O[C@@H]3O[C@H](CO[C@H]4O[C@H](CO)[C@@H](O)[C@H](O)[C@@H]4O[C@@H]4O[C@H](CO)[C@@H](O[C@@H]5O[C@H](CO)[C@H](O)[C@H](O)[C@H]5O)[C@H](O)[C@H]4NC(C)=O)[C@@H](O)[C@H](O[C@H]4O[C@H](CO)[C@@H](O)[C@H](O)[C@@H]4O[C@@H]4O[C@H](CO)[C@@H](O[C@@H]5O[C@H](CO)[C@H](O)[C@H](O)[C@H]5O)[C@H](O)[C@H]4NC(C)=O)[C@@H]3O)[C@H](O)[C@H]2NC(C)=O)[C@@H](CO)O[C@H]1NC(=O)CC(N)C(=O)N1CCN(CCNC(=O)c2ccccc2C(=O)N[C@@H](CCCNC(=N)N)C(=O)N[C@@H](Cc2c[nH]c3ccccc23)C(=O)NCC(=O)N[C@@H](CC(C)C)C(=O)N[C@@H](CC(C)C)C(=O)N[C@@H](CC(C)C)C(=O)N[C@@H](C)C(=O)N[C@@H](CC(C)C)C(=O)N[C@@H](CC(C)C)C(=O)O)CC1` (stereo partly shown) [compound 11, glycosylated (Asn (asialo)-type) linker-HER28-16 conjugate] here?
**A.** The half-life was 8.3 h.

**Q.** And the half-life [1, 3]?
**A.** Its half-life is 2.6 h.

**Q.** And the half-life [1, 4]?
**A.** The half-life was 21.4 h.

**Q.** And the half-life [1, 5]?
**A.** Its half-life is 6.2 h.

**Q.** What about the solubility at 15 minutes (physchem) of the same molecule?
**A.** Its solubility at 15 minutes is greater than 38 mM.

**Q.** And the Solubility (physchem; 0.1% aqueous TFA solution, 25° C., listed as Glycosylated linker-HER28-16 conjugate (compound 11))?
**A.** The Solubility was greater than 116 mg/mL.

**Q.** And the solubility at 15 minutes (physchem; Solubility (molar concentration), 0.1% aqueous TFA solution, 25° C.)?
**A.** Its solubility at 15 minutes is no less than 38 mM.
